Reference: patent US20190375824A1 (PANASONIC INTELLECTUAL PROPERTY MANAGEMENT, published 2019)
Where a chain is given by its changes, count along the chain named. Names may count otherwise.

B1: VHH antibody of SEQ ID NO: 1 (VHH)
VHH: QVQLVESGGGLVQAGDSLRLSCAASGRTFSGYAMGWFRQAPGKEREFVARINWSGTLTYYADSVKGRFTGSRDNAKNTVYLQMNSLKPEDTAVYYCAQRGDSGSNYDPSGYSYWGQGTQVTVSS
notes: Isolated from a phage library; also called WT VHH
B2: VHH antibody in which arginine in position 50 of SEQ ID NO: 1 was substituted (SEQ ID NO: 4) (VHH)
VHH: B1 VHH with R45L
notes: Text says asparagine at IMGT 50; Expressed in E. coli; also called R50L mutant
B3: VHH antibody in which glycine in position 36 and serine in position 116 of SEQ ID NO: 1 were substituted (SEQ ID NO: 7) (VHH)
VHH: B1 VHH with G31D, S112R
notes: Text says asparagine at IMGT 36; also called G36D/S116R mutant
B4: VHH antibody in which glycine in position 36 of SEQ ID NO: 1 was substituted (SEQ ID NO: 3) (VHH)
VHH: B1 VHH with G31D
notes: Text says asparagine at IMGT 36; Expressed in E. coli; also called G36D mutant
B5: VHH antibody in which glycine in position 36, arginine in position 50, and serine in position 116 of SEQ ID NO: 1 were substituted (SEQ ID NO: 9) (VHH)
VHH: B1 VHH with G31D, R45L, S112R
notes: Text says asparagine at IMGT 36; also called G36D/R50L/S116R mutant
B6: VHH antibody in which glycine in position 36, arginine in position 50, glycine in position 78, and serine in position 116 of SEQ ID NO: 1 were substituted (SEQ … (VHH)
VHH: B1 VHH with G31D, R45L, G70A, S112R
notes: Text says asparagine at IMGT 36; also called G36D/R50L/G78A/S116R mutant
B7: VHH antibody in which glycine in position 36, glycine in position 78, and serine in position 116 of SEQ ID NO: 1 were substituted (SEQ ID NO: 10) (VHH)
VHH: B1 VHH with G31D, G70A, S112R
notes: Text says asparagine at IMGT 36; also called G36D/G78A/S116R mutant
B8: VHH antibody in which glycine in position 78 of SEQ ID NO: 1 was substituted with alanine (SEQ ID NO: 5) (VHH)
VHH: B1 VHH with G70A
notes: Expressed in E. coli; also called G78A mutant
B9: VHH antibody in which serine in position 116 of SEQ ID NO: 1 was substituted with arginine (SEQ ID NO: 6) (VHH)
VHH: B1 VHH with S112R
notes: Expressed in E. coli; also called S116R mutant

What follows are binders tested against T1, human serum albumin (human, UniProt P02768 25-609) (assay: SPR).
T1 construct: Antigen in the SPR assay
Procedure: The binding affinity of the provided VHH antibodies to human serum albumin was measured with surface plasmon resonance.

Binder | Kd [nM] | koff [s⁻¹] | kon [M⁻¹ s⁻¹]
B1 | 261 | 0.371 | 1.42e+06
B2 | 157 | 0.303 | 1.93e+06
B3 | 44.7 | 0.0643 | 1.44e+06
B4 | 61.4 | 0.125 | 2.04e+06
B5 | 77.9 | 0.0879 | 1.13e+06
B6 | 380 | 0.355 | 933000
B7 | 365 | 0.411 | 1.13e+06
B8 | 13200 | 0.806 | 61200
B9 | 35.6 | 0.591 | 1.66e+07
